# From patent US20120278951A1 (AGRESEARCH, published 2012)
# Substitutions are numbered along the chain they refer to.
# B1: Oleosin disulfide 1,1 (sesame seed oleosin with one engineered cysteine in each hydrophilic arm), E. coli expressed from pET29b (other)
# chain: MKETAAAKFERQHMDSPDLGTLVPRGSMACHYGQQQQTRAPHLQLQPRAQRVVKAATAVTAGGSLLVLSGLTLAGTVIALTIATPLLVIFSPVLVPAVITIFLLGAGFLASGGFGVAALSVLSWIYRYLTGKHPPGADQLESAKTKLASKAREMKDRAEQFSCQPVPWLEHHHHHH
# notes: also called Ole-1-1; Oleosin-1-1
# B2: Oleosin disulfide 1,3 (sesame seed oleosin with one N-terminal and three C-terminal engineered cysteines), E. coli expressed from pET29b (other)
# chain: B1 chain with Q139C, K150C
# notes: also called Ole-1-3; Oleosin-1-3
# B3: Oleosin disulfide 3,1 (sesame seed oleosin with three N-terminal and one C-terminal engineered cysteines), E. coli expressed from pET29b (other)
# chain: B1 chain with R39C, Q50C
# notes: also called Ole-3-1; Oleosin-3-1
# B4: Oleosin disulfide 3,3 (sesame seed oleosin with three engineered cysteines in each hydrophilic arm), E. coli expressed from pET29b (other)
# chain: B1 chain with R39C, Q50C, Q139C, K150C
# notes: also called Ole-3-3; Oleosin-3-3
# B5: Oleosin disulfide 0,0 (sesame seed oleosin without engineered cysteines), E. coli expressed from pET29b (other)
# chain: MKETAAAKFERQHMDSPDLGTLVPRGSMAEHYGQQQQTRAPHLQLQPRAQRVVKAATAVTAGGSLLVLSGLTLAGTVIALTIATPLLVIFSPVLVPAVITIFLLGAGFLASGGFGVAALSVLSWIYRYLTGKHPPGADQLESAKTKLASKAREMKDRAEQFSQQPVPWLISDPNSSSVDKLAAALEHHHHHHH
# notes: Purified from E. coli inclusion bodies; also called Ole-0-0; Oleosin-0-0
# Columns and labels:
# [1] = target: the molecule itself; assay: self-association seen by SDS and SDS-UREA PAGE/immunoblot; on artificial oil bodies with GSSG also trimeric, tetrameric and likely pentameric disulfide cross-linked oligomers
# [2] = target: the molecule itself; assay: disulfide cross-linked oligomers seen by non-reducing SDS-PAGE/immunoblot of artificial oil bodies
# [3] = target: the molecule itself; assay: self-association / disulfide cross-linking seen by SDS and SDS-UREA PAGE/immunoblot of inclusion bodies and artificial oil bodies
# [4] = target: the molecule itself; assay: self-association (dimer) seen by SDS-PAGE/immunoblot; almost completely disrupted by SDS plus urea
protein,measurement,setting,value
B1,binding result,[1],binds
B2,binding result,[2],binds
B3,binding result,[2],binds
B4,binding result,[3],binds
B5,binding result,[4],binds
